Assay results from the nanobody polyreactivity screen of Harvey et al. (2022).

Experiment: yeast display, Sf9 membrane polyspecificity reagent, FACS + sequencing; frameworks hold sequencing errors
Outline: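 Using colony PCR, genes from sorted yeast display clones were amplified, then sequenced on MiSeq at 2 × 250 and filtered by CDR length. The clones had been stained with 10% biotinylated, detergent-solubilized Sf9 membrane reagent for 1 hour at 4 °C and sorted by FACS into low and high (top ~1%) gates on anti-HA and streptavidin fluorescence. Polyreactivity labels come from the gate of origin.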

Row | Sequence | polyreactivity (PSR sort gate)
1 | QVQLVESGGGLVQAGGTLRLSCAASGRTFNYAMGWYRQAPGKERELVATITSGGSTNYADSVKGRFTISRDNAKNTVYLQLNSLKPEDTAVYYCNRDIPPGNYYKALYYYWGQGTQVTVSS | low polyreactivity
2 | QVQLVESGGGIVQAGGSLSLSCRACGRSFAFYSMGWYRQEPGKERELVAAITRTGSTSYADSVNGRFTISRDNAKNTVYLQMNSLKPEDTAVYYCATVGYPYTLWHQMVYWGQGTQVTVSS | low polyreactivity
3 | QVQLVESGGGLVQAGGSLRLSCAAYGRTFLYNAMGWYRQAPGKERELVAAISSRGARTYYADSVKGRFTISRDNAKNTVYLQMNSLKPEDTAVYYCATDSYRYDGIQYLYEYYYWGQGTQVTVSS | high polyreactivity
4 | QVQLVESGGGLVQAGGSLRLSCAASGRTFRLYAMGWYREAPGKERELVAAISYSGGSTYYADSVKGRFTISRDNAKNTVYLPMNSLKPEDTAVYYCAAYSGYYGGDDYWGQGTQVTVSS | high polyreactivity
5 | QVQLVESGGGLVQAGGSLRLSCAASGFIFQTNHMGWYRQAPGKERELVAAISSGDSTYYADSVKGRFTISRDNAKNTVYLQMNSLIPEDTAVYYCAADVLGTTTVGGFNYWGQGTQVTVSS | low polyreactivity
6 | QVQLVESGGGLVQAGGSLRLSCAASGITFPKYAMGWYRQAPGKERELVAAITKSGGSTYYADSVKGRFTISRDNAKNTVYLQMNSLKPEDTAVYYCAVVSRGITKYDYWGQGTQVTVSS | high polyreactivity
7 | QVQLVESGGGLVQAGGSLRLSCAASGSIFRRYAMGWYRQAPGKEREFVAAITRSGGGTYYADSVKGRFTISRDNAKNTVYLQMNSLKPEDTAVYYCAKDVFVQRSRYPEGDYWGQGTQVTVSS | high polyreactivity
8 | QVQLVESGGGLVQAGGSLRLSCAASGSIFYKYTMGWYRPAPGKERELVAAISRSGGRTYYADSVKGRFTISRDNAKNTVYLQMNSLKPEDTAVYYCARDLKIVEYDYWGQGTQVTVSS | low polyreactivity
9 | QVQLVESGGGLVQAGGSIRLSCAASGNTFRWYAMGWYRQAPGKEREFVAAISSSGGSTYYADSVKGRFTISRDNAKNTVYLQMNSLKPEDTAVYYCNAASVTRHVSFATDYEYWGQGTQVTVSS | high polyreactivity
10 | QVQLVESGGGLVQAGGSLRLSCAASGFTLQQYTMGWYRQAPGKERELVAAISTSGVRTYYADSVKGRFTISRDNAKNTVYLQMNSLKPEDTAVYYCNAAWVYGIGWYSGYDYWGQGTQVTVSS | high polyreactivity
11 | QVQLVESGGGLVQAGGSLSLRFAASGFIFYRYAMGWYRQAPWKERELVAAITRSVTSTYYADSVKGRFTISRDNAKNTVYLQMNSLKPEDTAVYYCILRSRYDYYYWGQGTQVTVSS | high polyreactivity
12 | QVQLVESGGGLVQAGGSLRLSCAASGRIFRQNAMGWYRQAPGKERELVAAISRGGGSTYYADSVKGRFTISRDNAKNTVYLQMNSLKPDDTAVYYCAAFQAHQTAFDYWGQGTQVTVSS | high polyreactivity
13 | QVQLVESGGGLVQAGGSLRLSCAASGSIFHDYAMGWYRQEHGKERELVAVISTSGGSTYYADSVKGRFTISRDNAKNTDYLQMNSLKPEYTAVYYCNARTVGPYPSQAALEYDSGGQGTQVTVSS | low polyreactivity
14 | QVQLVESGGGLVQAGGSLRISCAASGRTLTSNAMGWYRQAPGKERELVASITGSSSNTYYADSVKGRFTISRDNAKNTVYLQMNSLKPEDTAVSYCAAEVGFPWWRLDEYWGQGTQVTVSS | low polyreactivity
15 | QVQLVESGGGLVQAGGSLRLSCAASGSIFSYYAMGWYRQAPGKERELVAAITTNTGNTYYADSVKGRFTISRDNAKNTVYLQMNSLKPEDSAVYYCAKSGVADFYYTYYYWGQGTQVNVSS | low polyreactivity
16 | QVQLVESGGGLVQAGGSLRLSCAASGFTFQENAMGWYRQAHGKERELVAAISTSGDSTYYADSVKGRFTISRDNAKNTVYLQMNSLKPEDTAVYYCATAYEVLVACVLYDYWGKGTQVTVSS | low polyreactivity
17 | QVQLVESGGGLVQAGGSLRLSCAASGRTFTVYAMGWYRQAPGKEREFVATISWSGGRTYYADSVKGRFTISRDNAKNTVYLQMNSLKPEDTAVYYCSAQEYTTRFYFNRDYWGQGTQVTVSS | low polyreactivity
